± gives the standard error. Fewer inactive variants are shown than the library holds.
B1: glmS ribozyme (parent)
chain: AUAAAAGCGCCAGAACUACAGAAAUGUAGUUGACGAGGAGGAGGUUUAUCGAAUUUUCGGCGGAUGCCUCCAAA

What was measured:
Details in all cases: with glucosamine-6-phosphate
glucosamine-6-phosphate [1] = variants of: B1; experiment: self-cleavage kobs at 160 uM GlcN6P; higher = faster cleavage; RNA array
In short: (§1)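 A hybridised Cy3 probe tracked barcoded ribozyme variants, transcribed in situ by E. coli RNA polymerase on sequenced MiSeq chips, at 37 °C. The variants received 40 μM to 10 mM glucosamine-6-phosphate in HEPES/KCl/Mg(OAc)2 buffer. kobs came from decay fits and kcat and KM from weighted Michaelis–Menten fits.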

glucosamine-6-phosphate [2] = variants of: B1; experiment: self-cleavage kobs at 640 uM GlcN6P; higher = faster cleavage; RNA array
In short: as §1

glucosamine-6-phosphate [3] = variants of: B1; experiment: self-cleavage kobs at 2500 uM GlcN6P; higher = faster cleavage; RNA array
In short: as §1

glucosamine-6-phosphate [4] = variants of: B1; experiment: self-cleavage kobs at 10000 uM GlcN6P; higher = faster cleavage; RNA array
In short: as §1

Row | Variant | self-cleavage kobs at 160 uM GlcN6P (glucosamine-6-phosphate [1]) | self-cleavage kobs at 640 uM GlcN6P (glucosamine-6-phosphate [2]) | self-cleavage kobs at 2500 uM GlcN6P (glucosamine-6-phosphate [3]) | self-cleavage kobs at 10000 uM GlcN6P (glucosamine-6-phosphate [4])
1 | G43A G44A | < 1e-05 s⁻¹ | < 1e-05 s⁻¹ | < 1e-05 s⁻¹ | < 1e-05 s⁻¹
2 | G32C G38U G43A C67A | < 1e-05 s⁻¹ | – | < 1e-05 s⁻¹ | –
3 | G44U C61A C67U C70G | < 1e-05 s⁻¹ | < 1e-05 s⁻¹ | < 1e-05 s⁻¹ | –
4 | C16G C67G | 0.000347 ± 0.00013 s⁻¹ | 9.56e-05 ± 1.7e-05 s⁻¹ | 8.7e-05 ± 1.4e-05 s⁻¹ | 6.6e-05 ± 7e-06 s⁻¹
5 | G9C A36C | < 1e-05 s⁻¹ | < 1e-05 s⁻¹ | < 1e-05 s⁻¹ | < 1e-05 s⁻¹
6 | C8A C10U | < 1e-05 s⁻¹ | < 1e-05 s⁻¹ | – | –
7 | C8G C16G | < 1e-05 s⁻¹ | < 1e-05 s⁻¹ | < 1e-05 s⁻¹ | < 1e-05 s⁻¹
8 | G13U G37C U45C C68U | < 1e-05 s⁻¹ | – | < 1e-05 s⁻¹ | –
9 | G7A A48G | < 1e-05 s⁻¹ | – | < 1e-05 s⁻¹ | < 1e-05 s⁻¹
10 | A52C U65A | < 1e-05 s⁻¹ | < 1e-05 s⁻¹ | < 1e-05 s⁻¹ | < 1e-05 s⁻¹
11 | G38U A42G | < 1e-05 s⁻¹ | < 1e-05 s⁻¹ | – | –
12 | C11G G32A U65G | < 1e-05 s⁻¹ | < 1e-05 s⁻¹ | – | < 1e-05 s⁻¹
13 | C50G G59U | 7.49e-05 ± 1.3e-05 s⁻¹ | 0.000241 ± 8.6e-05 s⁻¹ | 0.000355 ± 0.0001 s⁻¹ | –
14 | C10U G40C G44U | < 1e-05 s⁻¹ | – | < 1e-05 s⁻¹ | < 1e-05 s⁻¹
15 | U45C U46C | 0.000106 ± 3e-05 s⁻¹ | 0.000335 ± 5.7e-05 s⁻¹ | 0.00111 ± 0.00037 s⁻¹ | –
16 | G29U G60U | < 1e-05 s⁻¹ | < 1e-05 s⁻¹ | < 1e-05 s⁻¹ | < 1e-05 s⁻¹
17 | G9A A52U C70U | < 1e-05 s⁻¹ | – | – | –
18 | A12G U46G G59U | < 1e-05 s⁻¹ | < 1e-05 s⁻¹ | < 1e-05 s⁻¹ | –
19 | C10A U31C U57A A64U | < 1e-05 s⁻¹ | – | – | –
20 | U45G C61A | < 1e-05 s⁻¹ | < 1e-05 s⁻¹ | < 1e-05 s⁻¹ | < 1e-05 s⁻¹
21 | G35A G62U | < 1e-05 s⁻¹ | – | < 1e-05 s⁻¹ | < 1e-05 s⁻¹
22 | A48U G59C | < 1e-05 s⁻¹ | < 1e-05 s⁻¹ | < 1e-05 s⁻¹ | < 1e-05 s⁻¹

— the supplement of paper PMC7125110
